Assay results: the nanobody polyreactivity screen of Harvey et al. (2022)

test: yeast display, Sf9 membrane polyspecificity reagent, FACS + sequencing; frameworks hold sequencing errors
Summary of the method: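 Galactose induction of a Saccharomyces cerevisiae BJ5465 synthetic nanobody display library ran 36–48 hours. The cells were then stained for 1 hour at 4 °C with 10% biotinylated, detergent-solubilized Sf9 membrane reagent, pulled down on streptavidin microbeads and FACS-sorted into low and high (top ~1%) gates on expression and reagent-binding fluorescence. Labels for polyreactivity follow the gate of origin.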

| Sequence | polyreactivity (PSR sort gate) |
| --- | --- |
| QVQLVESGVGLVQAGGSLRLSCAASGRIFGAYAIGWYRQAPRKERELVAAISGSGGRTYYADSVKGRFTISRDSEKNTVYLQMNRLKPEDTAVYYCNKGYVYGHEYWGQGTQVTVSS | high polyreactivity |
| QVQLVESGVGLVQAGGSLRLSCAASGRIFGVYVMGWYRQAPGKERELVAGISPSGGSTYYADSVKGRFTISRDNAKNTVYLQMNSLKPEDTAVYYCAAVLRIRRPRYGYWGQGTQVTVSS | high polyreactivity |
| QVQLVESGVGLVQAGGSLRLSCAASGRIFRRYTMGWYRQPPGKERELVAAISASGGNTYYADSVKGRFTISRDNAKNTVYLQMNSLKPEDTAVYYCARRWRPWTQDGDDYWGQGTQVTVSS | high polyreactivity |
| QVQLVESGVGLVQAGGSLRLSCAASGRIFTGYAMGWYRQAPGKERELVAAITSSGDGTNYADSVKGRFTISRDNAKNTVYLQMNSLKPEDTAVYYCNADGSYKMDWGQGTQVTVSS | low polyreactivity |
| QVQLVESGVGLVQAGGSLRLSCAASGRIFYNNVRGWYRQAPGKERELVAGISGNGGSTYYPDSVKGRFTISRDNAKNTVYLQMNSPKPEDTAVYYCAARSSFRTLIFYQKFDYWGQGTQVTVSS | low polyreactivity |
| QVQLVESGVGLVQAGGSLRLSCAASGRPFVAYAMGWYRQAPGTERELVARISSGGGTYADSVKGRFTISRDNAKNTVYLQMNSLKPEDTAVYYCATSLQRQFDYWGQGTQVTVSS | low polyreactivity |
| QVQLVESGVGLVQAGGSLRLSCAASGRTFEPNAMGWYRHAPGKERELVAGITWSGGSTYYADSVKGRFTISRDNAKNTVYLQMNSLKPEDTAVYYCNAPITWKRSHYGYWGQGTQVTVSS | low polyreactivity |
| QVQLVESGVGLVQAGGSLRLSCAASGRTFFGYAMGWYRQAPGKEREFVARISWRGTSTTYADSVKGRFTISRDNAKNTVYLQMNSLKPEDTAVYYCAASQYGLRVYFTVGYWGQGTQVTVSS | high polyreactivity |
| QVQLVESGVGLVQAGGSLRLSCAASGRTFGVYAMGWYRQAPGKESTYYADSVKGRFTISRDNAKNTVYLQMNSLKPEDTAVYYCNARGGFGYITMDYWGQGTQVTVSS | low polyreactivity |
| QVQLVESGVGLVQAGGSLRLSCAASGRTFISNVMGWYRQAPGKERELVAAISGSSGSTRYADSVKGRFTISRDNAKNTVYLQMISLKPEDTAVYYCAARAPWPKWGYYYWGQGTQVTVSS | high polyreactivity |
| QVQLVESGVGLVQAGGSLRLSCAASGRTFSTNAMGWYIQAPGKERELVAAITSRGGSTYYADSVKGRFTISRDNAKNTVYLQMNSLKPEDTAVYYCAVDPLYSKTHYVTLGYYYWGQGTQVTVSS | low polyreactivity |
| QVQLVESGVGLVQAGGSLRLSCAASGRTISYNARGWYRQAPGKEREFVADINYSAGSTYYADSVKGRFTISRDNAKNTGKLQMNRLKPEDTAVYYCAAKYYGEMYSWGQGTQVSVSS | low polyreactivity |
| QVQLVESGVGLVQAGGSLRLSCAASGSIFDKNAMGWDRPAPGKERELVAAISRSGGSTYYADSVKGRFTISRDNAKNTVYLQMNSLKPEDTAVYYCNKYTNGRNFDYWGQGTQVTVSS | high polyreactivity |
| QVQLVESGVGLVQAGGSLRLSCAASGSIFFKYAMGWYRQAPGKERELVAGITSTGRTYYADSVKGRFTISRDNAKNTVYLQMNSLKPEDTAVYYCNARTLPTYYRRYDYWGQGTQVTVSS | high polyreactivity |
| QVQLVESGVGLVQAGGSLRLSCAASGSIFFPNAMGWYRQAPGKQRELVAAITSTSTNYAESVKGRCTISRDNAKNTVYLQMNSLKPEDTAVYYCAADGEFRRAWYEGDYWGQGTQVTVSS | low polyreactivity |
| QVQLVESGVGLVQAGGSLRLSCAASGSIFSPNAMVWSRQAPGKERELVAAITWSGDSTYYADSVKGRFTISRDNAKNTVYLQINSLKREDTEVYYCAADFTYQGSSANDYWGQGSQVTVSS | low polyreactivity |

| Sequence | polyreactivity (PSR sort gate) |
| --- | --- |
| QVQLVESGVGLVQAGGSLRLSCAASGSIFWLYAMGWYRQAPGKERELVAAIDSGDSTKYADSVKGRFTISRDTAKNTVYLQMNSLKPEETAVYYSAKDYYYGLEHYGYWGQGTQVTVSS | low polyreactivity |
| QVQLVESGVGLVQAGGSLRLSCAASGSTFANNAMGWYRQAPGKERELVAAISWSGGSTYYADSVKGRFTISRDNAKNTVYLQMNSLKPEDTAVYYCAADSPRYGGYGYWGQGTQVTLSS | low polyreactivity |
| QVQLVESGVGLVQAGGSLRLSCAASGSTFDYYVMGWYRQAPGKVRELVAAISETGDDTYYADSVKGRFTLSRDNAKNTVYLQINRLNPEDTAVYYCAADSYFYSGFVRRFYFWGQGSQVTVSS | high polyreactivity |
| QVQLVESGVGLVQAGGSLRLSCAASGSTFLTNVMGWYRQAPGKERELVAAITIGGSTNYADSVKGRFTISRDNAKNSVYLQMNSLKPEDTAVYYCATDIRRKPRYVDYEYWGQGTQVSVSS | low polyreactivity |
| QVQLVESGVGLVQAGGSLRLSCAASGSTFRRNTMGWYRKAPGKERELVAAINYSGGSTYYADSVKGRFTISRDNAKNTVYLQMNSLKPEDTAVYYCAARYAYDFPYYYWGQGTQVTVSS | high polyreactivity |
| QVQLVESGVGLVQAGGSLRLSCAASGSTFVWYAMGWYRQAPGKERELVAVIDWSGGSTSYADSVKGRFTISRDNAKNTVSFQMNSLKPEDTAVYYCAAQQGVISRGNYWGQGTQVTVSS | low polyreactivity |
| QVQLVESGVGLVQAGGSLRLSCAASGSTFYKYTMGWYRQAPGKESELVSAISRSGGRTYYADSVKGRFTISRDNAKNTVYLQMNSLKPEDTAVYYCAVVTPRYYGDTKYDYWGQGTQVTVSS | high polyreactivity |
| QVQLVESGVGLVQAGGSLRLSCAASGSTILQNAMGWYRQAPGKERELVAAISRSGGSTYYADSVKGRFTISRDNAKNTVYLQMNSLKPEDTAVYYCAAGGRRYDDDYWGQGTQVTVSS | high polyreactivity |
| QVQLVESGVGLVQAGGSLRLSCAASGSTYRYAMGWYRQAPGKERELVAAISRSTGSTYYADSVKGRLTISRDNANNTVNLQMNRLKPEDTAVYYCARDVYYRGYKYGYWGQGTQVTVSS | high polyreactivity |
| QVQLVESGVGLVQAGGSLRLSCAASVRIFLFYAMGGYRQAPVKERELVAAITSGGSTYYADSVKGRFTMSRDNAKNTVYLQMNSLKPEDTAVYYCANYYWGQGTQVTVSS | low polyreactivity |
| QVQLVESGVGLVQAGGSLRLSCAASVSTFAYNAMGWYRQSPGKEREIVASISWSGGSTYYADSVKGRFTISRDNAKNSVYLQMNSLKPEDTAVYYCAADLNAYPQRAYDYWGQGTQVTVSS | low polyreactivity |
| QVQLVESGVGLVQAGGSLRLSCAAYGYTFYRYAMGWYRQAPGKERELVAAINKSGGRTYYADSVKGRFTISRDNAKNTVYLQMNSLKPEDTAVYYCNTPFDYPDNPEYDYWGQGTQVTVSS | high polyreactivity |
| QVQLVESGVGLVQAGGSLRLSCASSGLIFYDNMGWYRQAPGKERELVAAISSSGGSTSYADSVKGRFTISRDNAKNTVYLQMNSLKPEDTAVYYCAADYRRYGSYDYWGQGTQVTVSS | low polyreactivity |
| QVQLVESGVGLVQAGGSLRLSCASSGRTFTPNGMGWYRQAPGKERELVAAITYGGGITDYADSVKGRFTISRDNAKNTVYLQMNRLNPEDTAVYYCAATTLSFEGGKYWSKYDYWGQGTQVTVSS | low polyreactivity |
| QVQLVESGVGLVQAGGSLRLTCAASGSIFSVYAMGWYRPAPGKESELVAAITSSGGLTYYADSVKGRITISRDYAKNSVYLQMTSLIPEDTAVYYCATRGIPDDIARDYWGLGTQVTVSS | low polyreactivity |
| QVQLVESGVGLVQAGGSLSLSCAASGITFPYVMGWYRQAPGKERELVAAISRTGTSTYYADSVKGRFTSSRDNAKNNVYLEMNTLKPEDTAVYYCAARTQTQVYPAYGYWGQGTQVTVSS | high polyreactivity |
